Measured values published in patent US20100292147A1 (UNIVERSITY OF UTAH RESEARCH FOUNDATION, published 2010).
No end group written: not given here.

T1: HBD wt peptide (hepcidin binding domain of ferroportin with two arginines at each end)
T1 construct: Synthetic peptide; also called I-HBD (when immobilized on agarose beads or 96-well plates); HBD-beads
T1 peptide: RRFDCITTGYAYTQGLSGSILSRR


Tests used:
[1] = biological target: T1, HBD wt peptide (hepcidin binding domain …); experiment: binding to HBD, data not shown
[2] = biological target: T1, HBD wt peptide (hepcidin binding domain …); experiment: competition with sub saturating ^125I-hepcidin (0.6 ug/ml) for bead-immobilized HBD (I-HBD), 18 h at 37 C, gamma counting (FIG. 2B)
Protocol: FIGS. 2A-C illustrates that the binding of ¹²⁵I-hepcidin to HBD is specific and temperature dependent. In FIG. 2A peptides (HBD, scrambled-HBD or mutant (C326Y HBD) were conjugated to beads and ¹²⁵I-hepcidin was added to the bead-immobilized peptides (I-HBD) for 18 hours at 37° C. (black bars) or 4° C. (grey bars). The beads were washed and the amount of ¹²⁵I-hepcidin bound to the I-HBD was determined. In FIG. 2B a sub saturating concentration of ¹²⁵I-hepcidin (0.6 μg/ml) was incubated with I-HBD for 18 hours at 37° C. in the presence or absence of known concentrations of either hepcidin 25 (Hep 25-open circles) or hepcidin 25 synthesized with a tyrosine substitution at position M21 (Y-Hep 25) and the amount of radioactivity bound to the I-HBD determined. In FIG. 2C sub saturating levels of ¹²⁵I-hepcidin were incubated with I-HBD at different temperatures.
HBD peptides were immobilized by covalently attaching them to agarose beads. Immobilization was performed using AminoLink Plus Immobilization Kit (Pierce) following the manufacturer's instructions. 1.0 mg of HBD peptide was used per 2.0 ml of AminoLink beads. To measure hepcidin concentrations in biological fluids, samples were mixed with a defined concentration of ¹²⁵I-hepcidin and then added to HBD conjugated beads. […] The fluid was removed and the radioactivity bound to beads was determined by gamma counting (Perkin/Elmer).

binding result [1] | apparent K [2] [nM] | Binder
no binding |  | ICIFCCGCCHRSKCGMCCKT (ends and bridges not checked; also: native intramolecular disulfides, pairing not given here) [Hep20 (hepcidin 20, hepcidin lacking the five amino terminal amino acids)]
 | ~200 | DTHFPICIFCCGCCHRSKCGMCCKT (peptide, UniProt P81172 60-84, looked up, ends and bridges not checked; also: native intramolecular disulfides, pairing not given here, mature; Synthetic peptide; also called Hep 25; Hep25) [hepcidin (hepcidin 25, native non-radioactive hepcidin)]
